From PMC10912661 (Scientific Reports, 2024) come the findings set out here.

Holding throughout (settings): both partners purified
For assay [1], the target named is T1, human hemoglobin (bought powder, gel-filtered, for in vitro assays) (human, UniProt P69905 1-142; P68871 1-147). The assay is described as follows: SPR. In general terms: Surface plasmon resonance follows binding to a sensor surface in real time, without labels.
In assay [2] the target is T1, human hemoglobin (bought powder, …). The assay is described as follows: SPR. The source holds these as a separate data set.
In assay [3] the target is human hemoglobin purified from donor blood (carboxyhemoglobin form, for crystallography) (human, UniProt P69905 1-142; P68871 1-147). Nature of the assay: crystal structure.
Chain of human hemoglobin purified from donor blood (carboxyhemoglobin form, for crystallography) (P69905 whole entry, chain 1 of 2): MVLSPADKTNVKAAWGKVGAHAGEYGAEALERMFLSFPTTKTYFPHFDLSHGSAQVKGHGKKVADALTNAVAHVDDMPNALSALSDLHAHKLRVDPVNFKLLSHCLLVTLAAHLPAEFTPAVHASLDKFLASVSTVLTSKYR
Chain of human hemoglobin purified from donor blood (carboxyhemoglobin form, for crystallography) (P68871 whole entry, chain 2 of 2): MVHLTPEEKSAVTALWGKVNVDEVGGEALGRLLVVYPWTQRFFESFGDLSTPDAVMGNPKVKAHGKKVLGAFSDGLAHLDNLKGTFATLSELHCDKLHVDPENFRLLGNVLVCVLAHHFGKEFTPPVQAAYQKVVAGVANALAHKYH
The target of assay [4] is T2, β-chain of human hemoglobin (in the Hb tetramer of the crystal) (human, UniProt P68871 1-147).
T2 construct: also called β-chain of Hb; chain ß; source: purified from human blood of a single healthy donor, as part of Hb
T2 sequence (P68871 whole entry): as the sequence (P68871 whole entry, chain 2 of 2) above
The assay is described as follows: crystal structure.

T1 sequence (P69905 whole entry, chain 1 of 2): as the sequence (P69905 whole entry, chain 1 of 2) above
T1 sequence (P68871 whole entry, chain 2 of 2): as the sequence (P68871 whole entry, chain 2 of 2) above

B1: hemoglobin-interacting domain 2 (HID2) of Shr, residues 169-294, wild type (domain or fragment)
chain: SGKNTANLSLITKLSQEDGAILFPEIDRYSDNKQIKALTQQITKVTVNGTVYKDLISDSVKDTNGWVSNMTGLHLGTKAFKDGENTIVISSKGFEDVTITVTKKDGQIHFVSAKQKQHVTAEDRQS
notes: also called WT; WT HID2; source: E. coli BL21(DE3), pET28b, purified (Ni-NTA, TEV cleavage, second Ni column, SEC Superdex-75)
Turning to B1, the Kd (commonly the constant that tells how readily two partners part at equilibrium) in assay [1] amounted to 25 µM. Moreover, in assay [2], the Kd was found to be 22 ± 0.12 µM, the koff (usually the rate constant with which the complex falls apart) worked out at 0.65 ± 0.025 s⁻¹ and the kon (commonly the rate constant with which the complex forms) was found to be 30000 ± 160 M⁻¹ s⁻¹. The stoichiometry N (usually the number of molecules, sites or subunits per partner or assembly) in assay [3] was found to be 3 HID2 per Hb tetramer. For the same molecule, the binding result in assay [4] was “binds”.
